A word on the Km: it is the substrate concentration at which the rate is half of its maximum. As a reminder, the kcat is the number of substrate molecules converted per active site and unit of time at saturation. As a reminder, the kcat/Km is the turnover number divided by the Michaelis constant. Usually Ki stands for the dissociation constant of the complex between target and ligand, obtained from inhibition or displacement. Lower therefore signals a stronger hold on the target.

These results are taken from PMC3581539, “Biochemical and Mutational Analysis of a Novel Nicotinamidase from Oceanobacillus iheyensis HTE831” (PLoS ONE, 2013).

The test system of one data set is NC(=O)c1cnccn1. Description: steady-state kinetics (Km), GDH-coupled spectrophotometric assay. Format: biochemical, Oceanobacillus iheyensis.
The test system of another data set is NC(=O)c1cccnc1. The data set is described as above. Format: biochemical, Oceanobacillus iheyensis. The conditions noted are these: Zn2+ active site.
Another data set concerns the target T1, nicotinamidase (OiNIC) (Oceanobacillus iheyensis, UniProt Q8ESQ6).
T1 construct: gene OB0565
T1 sequence (Q8ESQ6 1-183): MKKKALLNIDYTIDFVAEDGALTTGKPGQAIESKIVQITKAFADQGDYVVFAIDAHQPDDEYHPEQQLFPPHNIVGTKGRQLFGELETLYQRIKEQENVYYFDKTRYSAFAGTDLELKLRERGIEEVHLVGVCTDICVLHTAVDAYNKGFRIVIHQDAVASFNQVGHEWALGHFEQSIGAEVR

Substrate in data set [1]: CCOC(=O)c1cccnc1
Description: steady-state kinetics (Km), HPLC. The note with it: Zn2+. Format: biochemical, Oceanobacillus iheyensis.

Substrate in data set [2]: COC(=O)c1cccnc1
Put plainly: steady-state kinetics (Km), HPLC. The conditions noted are these: Zn2+. It counts as biochemical, Oceanobacillus iheyensis.

Substrate in data set [3]: NC(=O)c1cccnc1
Description: steady-state kinetics (Km), HPLC and GDH-coupled assay. Format: biochemical, Oceanobacillus iheyensis. The conditions noted are these: Zn2+ active site.

Substrate in data set [4]: NC(=O)c1cnccn1
Description: steady-state kinetics (Km), GDH-coupled spectrophotometric assay. It counts as biochemical, Oceanobacillus iheyensis. The note with it: Zn2+ active site.

Substrate in data set [5]: Cc1cncc(C(N)=O)c1
Described as above. It counts as biochemical, Oceanobacillus iheyensis. The conditions noted are these: Zn2+.

In the case of “nicotinamidase (OiNIC) (Oceanobacillus iheyensis HTE831; F69W)”, in the data set on NC(=O)c1cnccn1 (Zn2+ active site cavity), the Km was 500 ± 20 µM, the kcat was 3.94 ± 0.1 s⁻¹ and the kcat/Km was 7900 M⁻¹ s⁻¹.

As for “nicotinamidase (OiNIC) (Oceanobacillus iheyensis HTE831; E65H)”, in the data set on NC(=O)c1cccnc1, the Km turned out to be 130 ± 10 µM, the kcat stood at 5.63 ± 0.2 s⁻¹ and the kcat/Km was found to be 42600 M⁻¹ s⁻¹.

Molecule `O=Cc1cccnc1` [nicotinaldehyde] displayed a Ki on nicotinamidase (OiNIC) of 3.4 µM.

Consider “nicotinamidase (OiNIC) (Oceanobacillus iheyensis HTE831; C133A)”, for which, in the data set with NC(=O)c1cnccn1 (Zn2+ active site), the Km was found to be 360 ± 20 µM, the kcat amounted to 3.31 ± 0.1 s⁻¹ and the kcat/Km turned out to be 9190 M⁻¹ s⁻¹.

B1: nicotinamidase (OiNIC) (Oceanobacillus iheyensis HTE831) (protein)
chain: T1 sequence (Q8ESQ6 1-183)
B1: the Km in data set [1] is 1020 ± 10 µM; in data set [2] it was 1030 ± 10 µM; in data set [3], 260 ± 20 µM; in data set [4], 810 ± 10 µM; in data set [5], 680 ± 20 µM. In addition, the kcat in data set [1] came out at 0.1 ± 0.01 s⁻¹; in data set [2], 0.32 ± 0.02 s⁻¹; in data set [3], 11.65 ± 0.1 s⁻¹; in data set [4], 2.6 ± 0.1 s⁻¹; in data set [5] it was 5.1 ± 0.02 s⁻¹. Moreover, the kcat/Km in data set [1] was 100 M⁻¹ s⁻¹; in data set [2] it was 310 M⁻¹ s⁻¹; in data set [3] it was 43500 M⁻¹ s⁻¹; in data set [4], 3200 M⁻¹ s⁻¹; in data set [5], 7500 M⁻¹ s⁻¹.
